Source: patent US20200353078A1 (AstraZeneca / MedImmune, published 2020)

Experiments:
His10/Avi Human IL33-01 = target: T1, His10/Avi Human IL33-01 (human); test: cell-based or functional assay
T1 chain: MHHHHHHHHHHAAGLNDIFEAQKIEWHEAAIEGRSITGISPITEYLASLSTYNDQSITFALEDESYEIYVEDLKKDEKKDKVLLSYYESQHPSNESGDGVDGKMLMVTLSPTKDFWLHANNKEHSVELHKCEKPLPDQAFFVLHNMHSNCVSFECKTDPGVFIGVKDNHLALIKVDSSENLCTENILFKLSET

[1] = target: T2, Cynomolgus IL-33 Flag®His (cynomolgus monkey); test: HTRF, test protein competing with biotinylated IL33-01 for DyLight650 labelled IgG
T2 construct: C-terminal FLAG 10xHis tag, E. coli; also called Mature Cynomolugus IL-33; cyno IL-33 FH
T2 chain: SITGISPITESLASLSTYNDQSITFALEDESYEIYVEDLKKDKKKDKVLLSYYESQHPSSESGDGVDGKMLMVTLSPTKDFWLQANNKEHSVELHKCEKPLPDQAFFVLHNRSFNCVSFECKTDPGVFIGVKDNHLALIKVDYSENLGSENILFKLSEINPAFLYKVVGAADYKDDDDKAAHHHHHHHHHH
Protocol: (§1) Human, cyno and mouse IL-33 FLAG® His (described in Example 1 and Table 21), Human IL-1 alpha and IL-1 beta (R&D Systems) (Table 21) or rat IL-33 (GenScript) were tested for inhibition of human IL-33 binding to DyLight650 labelled 33_640087-7B or DyLight650 labelled 33_640237-2B by adding 5 microlitres of each dilution of sample to a 384 well low volume assay plate (Costar, 3673). […] This was followed by the addition of 2.5 microlitres of a solution containing 0.12 nM biotinylated human IL-33-01 combined with 0.75 nM streptavidin cryptate detection (Cisbio International, 610SAKLB). All dilutions were performed in assay buffer containing 0.8 M potassium fluoride (VWR, 26820.236) and 0.1% bovine serum albumin (BSA, PAA, K05-013) in Dulbeccos PBS (Invitrogen, 14190185). Assay plates were incubated for 4 hours at room temperature followed by 18 hours at 4 degrees Celsius and time resolved fluorescence was read at 620 nm and 665 nm emission wavelengths using an EnVision plate reader (Perkin Elmer). Data were analysed by calculating the 665/620 nm ratio followed by the % Delta F values for each sample. The 665/620 nm ratio was used to correct for sample interference using Equation 1. The % Delta F for each sample was then calculated using Equation 2. The negative control (non-specific binding) was defined by replacing biotinylated human IL-33 combined with streptavidin cryptate detection with streptavidin cryptate detection only. The % Delta F values were subsequently used to calculate % specific binding as described in Equation 3. IC₅₀ values were determined using GraphPad Prism software by curve fitting using a four-parameter logistic equation (Equation 4).

Human IL-33 Flag®His [2] = target: T3, Human IL-33 Flag®His (human); test: as above
T3 construct: Mature IL-33 with C-terminal FLAG 10xHis tag, from E. coli; biotinylated via free cysteines where used biotinylated; also called Mature Human IL-33_FH; human IL-33 FH
T3 chain: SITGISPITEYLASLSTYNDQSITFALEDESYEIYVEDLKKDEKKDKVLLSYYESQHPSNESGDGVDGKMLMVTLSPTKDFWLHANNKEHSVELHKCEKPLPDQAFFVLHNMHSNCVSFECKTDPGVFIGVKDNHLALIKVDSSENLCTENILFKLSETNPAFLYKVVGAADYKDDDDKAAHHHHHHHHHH
Protocol: as §1

Mouse IL-33 Flag®His [3] = target: T4, Mouse IL-33 Flag®His (mouse); test: as above
T4 construct: C-terminal FLAG 10xHis tag, E. coli; also called Mature Mouse IL-33_FH; mouse IL-33 FH
T4 chain: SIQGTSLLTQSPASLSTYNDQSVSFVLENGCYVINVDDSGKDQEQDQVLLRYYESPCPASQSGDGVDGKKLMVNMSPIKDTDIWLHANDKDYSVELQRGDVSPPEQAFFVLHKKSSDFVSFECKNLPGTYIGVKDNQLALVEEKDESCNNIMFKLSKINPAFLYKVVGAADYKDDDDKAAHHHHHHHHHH
Protocol: as §1

[4] = target: Human IL-1 beta (R&D Systems) (human, UniProt P01584 117-269); test: HTRF: unlabelled test protein competes with biotinylated human IL33-01 for DyLight650 labelled 33_640237-2B IgG
In short: (§2)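 HTRF competition: dilutions of unlabelled test protein competed with biotinylated human IL-33-01 (0.12 nM solution, with 0.75 nM streptavidin cryptate) for DyLight650-labelled 33_640087-7B or 33_640237-2B, in DPBS with 0.8 M KF and 0.1% BSA. Incubation was 4 h at RT, then 18 h at 4 °C. The 665/620 nm ratio gave % specific binding; IC50 by four-parameter fit.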

[5] = target: T5, Human IL-1 alpha (R&D Systems) (human, UniProt P01583 113-271); test: as above
T5 sequence (looked up): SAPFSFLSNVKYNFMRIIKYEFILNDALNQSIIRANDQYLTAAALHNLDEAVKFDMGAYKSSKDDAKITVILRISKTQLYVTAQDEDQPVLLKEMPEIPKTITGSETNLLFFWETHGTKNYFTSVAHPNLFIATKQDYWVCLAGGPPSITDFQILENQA
In short: as §2

Rat IL-33 (GenScript) = target: T6, Rat IL-33 (GenScript) (rat, UniProt Q66H70 109-264, limits assumed); test: as above
T6 sequence (looked up): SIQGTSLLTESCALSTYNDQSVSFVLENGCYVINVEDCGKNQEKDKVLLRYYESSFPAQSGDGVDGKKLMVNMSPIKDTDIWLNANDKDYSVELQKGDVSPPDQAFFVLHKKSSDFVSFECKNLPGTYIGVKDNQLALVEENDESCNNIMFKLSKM
In short: as §2

[6] = target: T2, Cynomolgus IL-33 Flag®His; test: phage ELISA
Human IL-33 Flag®His [7] = target: T3, Human IL-33 Flag®His; test: phage ELISA
Mouse IL-33 Flag®His [8] = target: T4, Mouse IL-33 Flag®His; test: phage ELISA
[9] = target: T7, Human ST2-Fc (R&D Systems, or source not stated in the example) (human, UniProt Q01638 19-328); test: Biacore T100, ST2-Fc captured on Protein G', peptide as analyte
T7 construct: extracellular domain; also called sST2.Fc; sST2
T7 sequence (looked up): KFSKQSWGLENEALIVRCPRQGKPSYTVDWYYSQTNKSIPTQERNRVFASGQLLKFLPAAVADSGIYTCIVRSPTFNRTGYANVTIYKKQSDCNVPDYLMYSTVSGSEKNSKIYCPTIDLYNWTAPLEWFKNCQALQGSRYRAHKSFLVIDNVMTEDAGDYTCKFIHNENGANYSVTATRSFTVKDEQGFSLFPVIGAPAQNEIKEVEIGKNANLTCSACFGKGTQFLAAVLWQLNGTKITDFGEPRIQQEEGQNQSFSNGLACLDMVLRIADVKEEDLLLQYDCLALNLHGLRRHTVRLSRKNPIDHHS
From the text: The identified peptide together with a truncate ([…]) and scrambled variants of both, were then chemically synthesised and used in confirmatory T100 Biacore (GE Healthcare) binding studies. Protein G′ (Sigma Aldrich, P4689) was covalently coupled to the surface of a CM5 sensor chip (GE Healthcare) using standard amine coupling reagents according to manufacturer's instructions. The protein G′ surface was used to capture H338L293 or ST2-Fc via the Fc domain to provide a surface density of approximately 290 RU per cycle. IL33 peptides prepared in HBS-EP+ buffer, at a range of concentrations were passed over the sensor chip surface. The surface was regenerated using two 10 mM Glycine washes of pH 1.7 and pH 1.5 between each injection of antibody. The resulting sensorgrams were evaluated using Biacore T100 evaluation software 2.0.3 (GE Healthcare) and fitted to a 1:1 Langmuir binding model, to provide relative binding data.

B1: 33_640237-2B IgG1 (antibody, V domains shown)
VH: EVQLLESGGGLVQPGGSLRLSCAASGFTFSSYAMSWVRQAPGKGLEWVSGIADDFTSTYYADPVKGRFTISRDNSKNTLYLQMNSLRAEDTAVYYCARDLWMMNYAGGLRYPFGYWGQGTMVTVSS
VL: SYVLTQPPSVSVSPGQTASITCSGERMGDKYAAWYQQKPGQSPVLVIYRDTKRPSGIPERFSGSNSGNTATLTISGTQAMDEADYYCGVLKQDTGVFGGGTKLTVL
notes: IgG1
B1 was tested, and the “IC50 (nM) vs. His Avi IL-33, Huvec IL-8 assay” value (His10/Avi Human IL33-01) was 0.067 nM, the binding result [1] was “binds” and the binding result (Human IL-33 Flag®His [2]) was “binds”. B1: no binding (Mouse IL-33 Flag®His [3]); no binding (tested: about 10^-5.8 M) [4]; no binding (tested: about 10^-5.8 M) [5]. B1: no binding (tested: about 10^-5.5 M) (Rat IL-33 (GenScript)).

B2: IL330180 scFv (scFv, V domains shown)
VH: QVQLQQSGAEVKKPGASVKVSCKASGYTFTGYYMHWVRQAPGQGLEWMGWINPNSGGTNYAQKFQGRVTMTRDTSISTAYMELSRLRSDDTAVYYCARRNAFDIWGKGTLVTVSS
VL: QPVLTQPPSVSEAPRQRVTISCSGSSSNIGNNAVNWYQQLPGTAPKLLIYRNNQRPSGVPDRFSGSKSGTSASLAISGLRSEDEADYYCAAWDDSLSGWVFGGGTKVNVL
B2: no binding [6]; binds (Human IL-33 Flag®His [7]); no binding (Mouse IL-33 Flag®His [8]).

B3: IL-33 tryptic epitope peptide (full length synthetic epitope peptide) (peptide)
peptide: MLMVTLSPTKDFWLHANNKEHSVELHK
notes: Chemically synthesised; also called predicted tryptic IL-33 fragment
B3: no binding [9].
